Results reported in IntAct's records for PubMed 29039417.

B1: BBSome complex member BBS1 (Homo sapiens), Q8NFJ9 (parent)
chain: MAAASSSDSDACGAESNEANSKWLDAHYDPMANIHTFSACLALADLHGDGEYKLVVGDLGPGGQQPRLKVLKGPLVMTESPLPALPAAAATFLMEQHEPRTPALALASGPCVYVYKNLRPYFKFSLPQLPPNPLEQDLWNQAKEDRIDPLTLKEMLESIRETAEEPLSIQSLRFLQLELSEMEAFVNQHKSNSIKRQTVITTMTTLKKNLADEDAVSCLVLGTENKELLVLDPEAFTILAKMSLPSVPVFLEVSGQFDVEFRLAAACRNGNIYILRRDSKHPKYCIELSAQPVGLIRVHKVLVVGSTQDSLHGFTHKGKKLWTVQMPAAILTMNLLEQHSRGLQAVMAGLANGEVRIYRDKALLNVIHTPDAVTSLCFGRYGREDNTLIMTTRGGGLIIKILKRTAVFVEGGSEVGPPPAQAMKLNVPRKTRLYVDQTLREREAGTAMHRAFQTDLYLLRLRAARAYLQALESSLSPLSTTAREPLKLHAVVQGLGPTFKLTLHLQNTSTTRPVLGLLVCFLYNEALYSLPRAFFKVPLLVPGLNYPLETFVESLSNKGISDIIKVLVLREGQSAPLLSAHVNMPGSEGLAAA
partner: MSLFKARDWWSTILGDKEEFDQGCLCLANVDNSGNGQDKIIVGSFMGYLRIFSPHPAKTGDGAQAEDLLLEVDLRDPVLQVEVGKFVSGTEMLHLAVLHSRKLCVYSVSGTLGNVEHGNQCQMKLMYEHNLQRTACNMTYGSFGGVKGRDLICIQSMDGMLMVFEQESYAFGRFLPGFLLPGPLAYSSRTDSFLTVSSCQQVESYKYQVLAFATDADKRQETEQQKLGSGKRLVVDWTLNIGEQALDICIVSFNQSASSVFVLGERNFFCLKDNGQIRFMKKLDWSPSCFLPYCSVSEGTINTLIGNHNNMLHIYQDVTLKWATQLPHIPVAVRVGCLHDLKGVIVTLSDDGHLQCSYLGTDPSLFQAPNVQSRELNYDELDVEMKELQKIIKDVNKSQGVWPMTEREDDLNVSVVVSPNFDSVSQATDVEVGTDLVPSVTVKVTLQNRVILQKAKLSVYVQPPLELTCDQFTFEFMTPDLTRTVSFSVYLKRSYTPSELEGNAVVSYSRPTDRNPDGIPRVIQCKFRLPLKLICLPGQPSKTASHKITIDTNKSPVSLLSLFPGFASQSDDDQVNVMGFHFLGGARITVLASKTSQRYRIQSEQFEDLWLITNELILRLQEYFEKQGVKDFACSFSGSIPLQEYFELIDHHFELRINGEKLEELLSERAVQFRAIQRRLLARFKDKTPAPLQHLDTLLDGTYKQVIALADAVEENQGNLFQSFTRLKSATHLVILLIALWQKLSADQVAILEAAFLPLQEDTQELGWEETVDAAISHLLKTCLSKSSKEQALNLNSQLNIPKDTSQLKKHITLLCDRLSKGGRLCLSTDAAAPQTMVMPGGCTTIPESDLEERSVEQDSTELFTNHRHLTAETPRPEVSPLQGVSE

Variants of: B1
Details: with pthb1_human BBS9, Q3SYG4

Variant	effect of a mutation on the interaction
N557E	with no effect
N557A	with no effect
N557K	with no effect
L577K	with no effect
L577A	with no effect
L577E	with no effect
V568E	disrupting interaction strength
V568K	disrupting interaction strength
V568A	disrupting interaction strength
K558A	with no effect
K558E	with no effect
L578A	with no effect
S561K	with no effect
S561E	with no effect
S561A	with no effect
P531K	with no effect
P531E	with no effect
P531A	with no effect
P547E	with no effect
P547A	with no effect
P547K	with no effect
G572E	with no effect
G572A	with no effect
G572K	with no effect

Variant	effect of a mutation on the interaction
E553A	with no effect
E553K	with no effect
V541K	with no effect
V541E	with no effect
V541A	with no effect
L555A	with no effect
L555K	with no effect
L555E	with no effect
F535K	with no effect
F535E	with no effect
F535A	with no effect
L548A	with no effect
L548K	with no effect
L548E	disrupting interaction strength
K536A	with no effect
K536E	with no effect
S529K	with no effect
S529A	with no effect
S529E	with no effect
S556E	with no effect
S556A	with no effect
S556K	with no effect
E525A	with no effect
E525K	with no effect

Variant	effect of a mutation on the interaction
P576E	with no effect
P576K	disrupting interaction strength
P576A	with no effect
R570A	with no effect
R570E	with no effect
R570K	with no effect
Y546E	disrupting interaction strength
Y546K	with no effect
Y546A	with no effect
I563A	with no effect
I563E	with no effect
I563K	with no effect
G559A	with no effect
G559K	with no effect
G559E	with no effect
F534E	with no effect
F534K	with no effect
F534A	with no effect
A533K	with no effect
A533E	with no effect
L567A	with no effect
L567E	with no effect
L567K	with no effect
V566K	disrupting interaction strength

Variant	effect of a mutation on the interaction
V566E	disrupting interaction strength
V566A	with no effect
I564A	disrupting interaction strength
I564K	disrupting interaction strength
I564E	disrupting interaction strength
V537K	disrupting interaction strength
V537E	disrupting interaction strength
V537A	with no effect
G543E	with no effect
G543K	with no effect
G543A	with no effect
E571K	with no effect
E571A	with no effect
A526E	with no effect
A526K	with no effect
P542K	disrupting interaction strength
P542E	with no effect
P542A	with no effect
Y523E	disrupting interaction strength
Y523K	with no effect
P538A	with no effect
P538E	with no effect
P538K	with no effect
P538L	disrupting interaction strength

Variant	effect of a mutation on the interaction
E549K	with no effect
E549A	with no effect
S554E	disrupting interaction strength
S554K	with no effect
S554A	with no effect
L569E	disrupting interaction strength
L569A	with no effect
L569K	with no effect
R532A	with no effect
R532E	with no effect
R532K	with no effect
T550K	with no effect
T550E	with no effect
T550A	with no effect
L527K	with no effect
L527P	disrupting interaction strength
L527E	with no effect
L527A	with no effect
Y528E	disrupting interaction strength
Y528K	disrupting interaction strength
Y528C	disrupting interaction strength
Y528A	disrupting interaction strength
D562E	with no effect
D562K	with no effect

Variant	effect of a mutation on the interaction
D562A	with no effect
S574A	with no effect
S574K	with no effect
S574E	with no effect
L544E	with no effect
L544K	with no effect
L544A	with no effect
N545K	with no effect
N545E	with no effect
N545A	with no effect
L540K	disrupting interaction strength
L540E	disrupting interaction strength
L540A	with no effect
I560K	with no effect
I560E	with no effect
I560A	with no effect
A575K	with no effect
A575E	with no effect
L530K	disrupting interaction strength
L530V	disrupting interaction strength
L530T	disrupting interaction strength
L530D	disrupting interaction strength
L530Q	disrupting interaction strength
L530R	disrupting interaction strength

Variant	effect of a mutation on the interaction
L530N	disrupting interaction strength
L530E	disrupting interaction strength
L530A	disrupting interaction strength
F551E	with no effect
F551K	with no effect
F551A	with no effect
V552E	disrupting interaction strength
V552K	disrupting interaction strength
V552A	with no effect
Q573E	with no effect
Q573K	with no effect
Q573A	with no effect
L539K	disrupting interaction strength
L539A	disrupting interaction strength
L539E	disrupting interaction strength
N524K	with no effect
N524A	disrupting interaction strength
N524E	with no effect
K565A	with no effect
K565E	with no effect

Variants of: B1
Details: with pthb1_human BBS9, Q3SYG4
Remark: another data set of the same source

Variant	effect of a mutation on the interaction
L548E	with no effect

Variants of: B1
Details: with pthb1_human BBS9, Q3SYG4
Remark: another data set of the same source

Variant	effect of a mutation on the interaction
Y546K	disrupting interaction strength
I564A	with no effect
